Interaction with Laa1, percent of wild type (% of wild-type levels) data for two substances are collected here from article PMC10798858.

The target in the assay is Laa1-myc (budding yeast (S. cerevisiae)) (UniProt P39526). As to the kind of experiment: co-IP.
UniProt P39526, sequence (P39526 whole entry, the tested form may be a part): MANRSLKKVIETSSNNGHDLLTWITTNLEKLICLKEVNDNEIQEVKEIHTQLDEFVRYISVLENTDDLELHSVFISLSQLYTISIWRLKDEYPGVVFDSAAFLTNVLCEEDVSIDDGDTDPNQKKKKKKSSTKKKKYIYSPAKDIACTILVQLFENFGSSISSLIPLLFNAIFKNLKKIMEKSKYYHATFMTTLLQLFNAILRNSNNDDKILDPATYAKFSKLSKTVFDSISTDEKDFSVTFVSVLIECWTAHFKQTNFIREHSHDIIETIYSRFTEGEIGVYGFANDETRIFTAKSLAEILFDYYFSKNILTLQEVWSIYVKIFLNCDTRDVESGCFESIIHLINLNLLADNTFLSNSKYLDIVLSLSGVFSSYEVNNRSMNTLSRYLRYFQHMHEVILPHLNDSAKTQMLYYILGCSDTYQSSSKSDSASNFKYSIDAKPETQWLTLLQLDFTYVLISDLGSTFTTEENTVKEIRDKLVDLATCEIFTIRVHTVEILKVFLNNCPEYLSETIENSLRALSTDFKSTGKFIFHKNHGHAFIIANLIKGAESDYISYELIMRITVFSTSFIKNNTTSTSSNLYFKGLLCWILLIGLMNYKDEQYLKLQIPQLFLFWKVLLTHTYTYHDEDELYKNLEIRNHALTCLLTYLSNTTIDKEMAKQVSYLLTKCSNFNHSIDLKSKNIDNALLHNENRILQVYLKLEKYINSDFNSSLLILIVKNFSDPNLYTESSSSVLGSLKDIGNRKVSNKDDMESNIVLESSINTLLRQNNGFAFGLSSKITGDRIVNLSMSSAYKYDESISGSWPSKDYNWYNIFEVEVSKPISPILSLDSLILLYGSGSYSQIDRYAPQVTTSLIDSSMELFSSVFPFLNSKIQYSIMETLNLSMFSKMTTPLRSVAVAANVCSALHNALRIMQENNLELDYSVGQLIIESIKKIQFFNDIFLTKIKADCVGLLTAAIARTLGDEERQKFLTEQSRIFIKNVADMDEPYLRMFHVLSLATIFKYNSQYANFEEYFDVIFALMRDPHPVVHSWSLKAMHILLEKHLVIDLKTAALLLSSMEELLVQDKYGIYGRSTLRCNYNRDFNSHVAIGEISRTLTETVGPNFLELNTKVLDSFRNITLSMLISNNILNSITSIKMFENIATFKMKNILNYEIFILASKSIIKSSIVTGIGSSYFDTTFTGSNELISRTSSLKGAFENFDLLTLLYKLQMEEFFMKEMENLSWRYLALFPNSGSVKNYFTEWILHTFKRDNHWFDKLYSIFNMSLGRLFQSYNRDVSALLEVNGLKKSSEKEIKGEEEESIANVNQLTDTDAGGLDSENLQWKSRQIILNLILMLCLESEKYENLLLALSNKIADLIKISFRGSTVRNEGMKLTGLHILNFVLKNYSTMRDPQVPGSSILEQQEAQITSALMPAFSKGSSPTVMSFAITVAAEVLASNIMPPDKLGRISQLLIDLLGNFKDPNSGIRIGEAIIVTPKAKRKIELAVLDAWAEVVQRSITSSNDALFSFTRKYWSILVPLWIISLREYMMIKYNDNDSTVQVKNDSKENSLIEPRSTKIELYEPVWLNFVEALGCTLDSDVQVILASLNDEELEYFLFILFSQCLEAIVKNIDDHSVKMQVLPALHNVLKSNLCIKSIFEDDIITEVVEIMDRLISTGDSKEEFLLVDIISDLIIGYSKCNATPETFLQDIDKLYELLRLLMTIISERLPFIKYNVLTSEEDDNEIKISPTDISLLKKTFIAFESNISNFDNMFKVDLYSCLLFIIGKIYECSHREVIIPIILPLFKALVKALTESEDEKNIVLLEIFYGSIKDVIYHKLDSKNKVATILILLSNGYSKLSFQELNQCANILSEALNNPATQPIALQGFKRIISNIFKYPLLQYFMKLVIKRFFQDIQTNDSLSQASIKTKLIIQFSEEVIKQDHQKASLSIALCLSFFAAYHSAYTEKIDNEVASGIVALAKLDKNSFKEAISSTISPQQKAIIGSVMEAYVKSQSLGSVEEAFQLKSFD

The substance “Lft1-ΔHR1 tagged with 6-HIS-TEV-3FLAG (HTF) (from UniProt Q03703 1-340) (natural protein)” returned an interaction with Laa1, percent of wild type (% of wild-type levels) of 60.
The value for “Lft1-ΔHR3 tagged with 6-HIS-TEV-3FLAG (HTF) (from UniProt Q03703 1-340) (natural protein)” was 60.
